The text below walks through data of PMC11063069.

In this assay the target is His-tagged human CD47 protein (human) (UniProt Q08722). Description: pull-down.
UniProt Q08722, sequence (Q08722 19-139): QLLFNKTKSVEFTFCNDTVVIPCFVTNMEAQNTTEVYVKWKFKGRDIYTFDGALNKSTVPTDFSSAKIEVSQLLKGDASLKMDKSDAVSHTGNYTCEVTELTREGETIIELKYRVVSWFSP

For “fibronectin-binding protein B (FnBP B) of S. aureus laboratory strain 8325-4 (from UniProt A0A0H2XKG3 37-940) (natural protein)”, the percent of bacterial colonies precipitated in the pellets with recombinant hCD47 came out at 83.2%.
